Measurements from patent publication US20150197568A1 (AstraZeneca / MedImmune, published 2015).
Where a chain is given by its changes, count along the chain named.

B1: Antibody 3 scFv (scFv, V domains shown)
VH: QVQLVQSGGGLIQPGGSLRLSCAASGFTISSNYMVWVRQAPGKGLEWVSDLYYYAGDTYYADSVKGRFTVSRDISKNTVYLQMNSLRAEDTGVYYCARWADDHYYHIDVWGRGTLVTVSS
VL: DIVMTQSPSTLSASVGDRVTITCRASQGISSWLAWYQQKPGRAPKALIYKASTLESGVPSRFSGSGSGTDFTLTISSLQPEDFATYYCQQSYSTPWTFGQGTKLEIKR
notes: Non-germlined; also called Ab 3; not shown: scFv linker, domain order and any purification tags
B2: Antibody 4 IgG (antibody, V domains shown)
VH: B1 VH with Q1E, I29V, V35T, V70M, D102G, H106Y, I107A, T117S
VL: B1 VL with A46V, T85S, T94A, I106L
notes: Non-germlined; IgG1 with human heavy chain and kappa constant domains; also called Ab 4
B3: Antibody 5 IgG (antibody, V domains shown)
VH: B1 VH with Q1E, V35I, V70M, D102G, H106Y, I107A, T117S
VL: B1 VL with S9P, A46V, T85S, T94A
notes: Non-germlined; IgG1 with human heavy chain and kappa constant domains; also called Ab 5
B4: Antibody 5 scFv (scFv, V domains shown)
VH: B1 VH with Q1E, V35I, V70M, D102G, H106Y, I107A, T117S
VL: B1 VL with S9P, A46V, T85S, T94A
notes: Non-germlined; also called Ab 5; not shown: scFv linker, domain order and any purification tags
B5: Antibody 2 scFv (scFv, V domains shown)
VH: B1 VH with Q1E, V35T, K65R, V70M, N84D, D102G, H106Y, R112G
VL: B1 VL with A34T, A46V, T94A, I106L
notes: Non-germlined; also called Ab 2; not shown: scFv linker, domain order and any purification tags
B6: Antibody 2 IgG (antibody, V domains shown)
VH: B1 VH with Q1E, V35T, K65R, V70M, N84D, D102G, H106Y, R112G
VL: B1 VL with A34T, A46V, T94A, I106L
notes: Non-germlined; also called Ab 2
B7: Antibody 4 scFv (scFv, V domains shown)
VH: B1 VH with Q1E, I29V, V35T, V70M, D102G, H106Y, I107A, T117S
VL: B1 VL with A46V, T85S, T94A, I106L
notes: Non-germlined; also called Ab 4; not shown: scFv linker, domain order and any purification tags
B8: Antibody 3 IgG (antibody, V domains shown)
VH: B1 VH
VL: B1 VL
notes: Non-germlined; IgG1 with human heavy chain and kappa constant domains; also called Ab 3
B9: Antibody 8 IgG (antibody, V domains shown)
VH: B1 VH with Q1E, V35I, V70M, Y104P, Y105R, H106Y, V109H
VL: DIVMTQSPSTLSASVGDRVTITCRASQGISSWLAWYQQKPGRAPKVLIYKASTLESGVPSRFSGSGSGTDFTLTISSLQPEDFATYYCQQSWLGGSFGQGTKLEIKR
B10: Antibody 19 IgG (antibody, V domains shown)
VH: B1 VH with Q1E, V35I, V70M, Y104P, Y105S, I107L, V109I
VL: B9 VL
B11: Antibody 16 IgG (antibody, V domains shown)
VH: B1 VH with Q1E, V35I, V70M, Y104P, Y105P, H106Y, V109L
VL: B9 VL
B12: Antibody 14 IgG (antibody, V domains shown)
VH: EVQLVQSGGGLIQPGGSLRLSCAASGFTISSNYMIWVRQAPGKGLEWVSDLYYYAGDTYYADSVKGRFTMSRDISKNTVYLQMNSLRAEDTGVYYCARWADDHNYPHIDVWGRGTLVTVSS
VL: B1 VL with A46V, Q89A, Q90A, S91H, S93A, T94A
B13: Antibody 23 IgG (antibody, V domains shown)
VH: B1 VH with Q1E, V35I, V70M, Y104A, Y105P, H106W, I107V, V109L
VL: B9 VL
B14: Antibody 17 (GL) IgG (antibody, V domains shown)
VH: B1 VH with Q1E, Q6E, I12V, V35I, V70M, G92A, Y104P, Y105P, H106Y, V109M
VL: B9 VL with V3Q, R42K, D70E, E81D
B15: Antibody 10 (GL) IgG (antibody, V domains shown)
VH: EVQLVESGGGLVQPGGSLRLSCAASGFTISSNYMIWVRQAPGKGLEWVSDLYYYAGDTYYADSVKGRFTMSRDISKNTVYLQMNSLRAEDTAVYYCARWEEEGRGYIDVWGRGTLVTVSS
VL: B9 VL with V3Q, R42K, D70E, E81D
B16: Antibody 7 (GL) IgG (antibody, V domains shown)
VH: B15 VH with E100A, E101D, E102D, G103H, R104P, G105A, Y106W, I107V, V109L
VL: B9 VL with V3Q, R42K, D70E, E81D
notes: Germlined IgG1 with human kappa constant domain; also called Ab 7
B17: Antibody 18 (GL) IgG (antibody, V domains shown)
VH: B15 VH with E100A, E101D, E102D, G103H, R104P, G105P, Y106W, V109L
VL: B9 VL with V3Q, R42K, D70E, E81D
notes: Germlined IgG1/kappa; also called Ab 18
B18: CAN022D10 scFv (scFv, V domains shown)
VH: B1 VH with Q1E, V35I, V70M, H106Y
VL: B1 VL with A46V
notes: Purified scFv from bacteria; also called CAN22D10; parent; not shown: scFv linker, domain order and any purification tags

Target: T1, Mature human IL-6 (human, UniProt P05231 30-212)
Experiment: cell-based or functional assay
Target sequence in this assay (P05231 30-212): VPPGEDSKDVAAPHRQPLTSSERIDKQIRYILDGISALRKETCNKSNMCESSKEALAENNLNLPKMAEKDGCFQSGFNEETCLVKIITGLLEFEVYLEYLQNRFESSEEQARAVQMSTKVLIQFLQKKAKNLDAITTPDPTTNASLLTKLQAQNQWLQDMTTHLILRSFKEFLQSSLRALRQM

Binder	IC50, TF-1 Proliferation Assay [nM]
B1	7.3
B2	0.061
B3	0.042
B4	12.4
B5	9.6
B6	0.016
B7	13.4
B8	0.05

Target: T1, Mature human IL-6
Experiment: cell-based or functional assay
Remark: another data set of the same source
Target sequence in this assay (P05231 30-212): as above

Binder	IC50, TF-1 cell proliferation assay [nM]
B9	0.048
B10	0.068
B11	0.0049
B12	0.031
B13	0.02

Target: T1, Mature human IL-6
Experiment: cell-based or functional assay
Remark: another data set of the same source
Target sequence in this assay (P05231 30-212): as above

Binder	IC50, IL-6 induced TF-1 cell proliferation assay [nM]
B14	0.001
B15	0.071
B16	0.005
B17	0.003

Target: T1, Mature human IL-6
Experiment: cell-based or functional assay
Remark: another data set of the same source
Target sequence in this assay (P05231 30-212): as above

Binder	IC50, endogenous IL-6 induced synovial fibroblast VEGF release assay [nM]
B14	0.57
B15	0.55
B16	0.75
B2	0.52
B3	0.7
B17	0.93
B6	0.59
B8	0.38

Target: T1, Mature human IL-6
Experiment: cell-based or functional assay
Remark: another data set of the same source

Binder	Mean IC50, inhibition of IL-6 induced IgM secretion from SKW6.4 cells, n=3 [nM]
B14	0.00321
B16	0.00264
B17	0.00263

Target: T1, Mature human IL-6
Experiment: SPR, BIAcore 2000; IgG amine-coupled to CM5 chip, IL-6 as analyte
Method: (§1) Human and cynomolgus IL-6 at a range of concentrations between 200 nM and 0.2 nM in HBS-EP buffer were passed over the sensor chip surface. The resulting sensorgrams were evaluated using BIA evaluation 3.1 software to provide relative binding data.
(§2) BIAcore studies were undertaken using a BIAcore 2000™. […] Human IL-6 at a range of concentrations between 200 nM and 0.2 nM in HBS-EP buffer were passed over the sensor chip surface. The resulting sensorgrams were evaluated using BIA evaluation 3.1 software to calculate the kₒₙ, koff and KD values for the antibodies tested.

Binder	Kd [nM]
B16	< 0.01
B17	< 0.01

Target: T2, Cynomolgus IL-6 (cynomolgus, UniProt P79341 28-212)
T2 construct: mature; also called cyno IL-6; macaque IL-6
Experiment: as above
Method: as §1, §2

Binder	Kd [nM]
B16	< 0.01
B17	< 0.01

Target: T3, HIS FLAG tagged human IL-6 (human, UniProt P05231 30-212)
T3 construct: In house; also called HIS FLAG IL-6; HIS/FLAG IL-6
Experiment: HTRF antibody-ligand competition; competitor biotinylated CAN022D10 IgG
Method: (§3) Crude scFv preparations from a representative number of individual clones for the round 3 and round 4 outputs were screened for their inhibitory activity in a CAN022D10 IgG-IL-6 HTRF® binding assay. In this assay, binding of biotinyated antibody and FLAG-tagged IL-6 was detected using cryptate labelled anti-FLAG monoclonal antibody and streptavidin XL^{ent!}™. The detailed assay method is provided in the Materials and Methods section.
(§4) The IC₅₀ value for each scFv was then calculated from data obtained by a testing dilution series of the purified sample in the HTRF antibody-ligand biochemical assay and TF-1 proliferation assay.
Target sequence in this assay (P05231 other isoform, or with tags, fused parts or gaps): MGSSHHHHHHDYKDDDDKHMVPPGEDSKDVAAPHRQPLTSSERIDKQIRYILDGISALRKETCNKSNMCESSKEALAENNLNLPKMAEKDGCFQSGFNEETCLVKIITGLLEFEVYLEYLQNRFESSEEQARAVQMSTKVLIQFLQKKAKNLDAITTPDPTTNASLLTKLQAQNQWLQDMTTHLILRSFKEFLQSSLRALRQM

Binder	IC50 [nM]
B1	0.022
B4	0.065
B5	0.035
B7	0.024

Target: T3, HIS FLAG tagged human IL-6
Experiment: HTRF receptor-ligand competition; HIS FLAG human IL-6 vs biotinylated sIL-6R
Method: Unique scFvs were expressed again in bacteria and purified by affinity chromatography (as described by Bannister et al. Purified IgG samples of these clones were also prepared as described in section 1.3. The potencies of these samples were determined by competing a dilution series of the purified preparation against biotinylated sIL-6R for binding to HIS FLAG tagged human IL-6 (in house E. coli derived).
Purified scFv and IgG from positive clones identified from screening were tested in a HTRF® assay for inhibition of binding of HIS FLAG tagged human IL-6 to biotinylated IL-6R. 8 nM biotinylated human IL-6R was pre-incubated for 30 minutes at room temperature in the dark, with 8 nM streptavidin XL^{ent!}™. All dilutions were done in phosphate buffered saline (PBS) containing 0.4 M potassium fluoride and 0.1% BSA (assay buffer).

Binder	IC50 [nM]
B18	45

Target: T3, HIS FLAG tagged human IL-6
Experiment: HTRF antibody-ligand competition; competitor biotinylated CAN022D10 IgG; protocol modified for IgG (footnote)
Method: as §3, §4
Target sequence in this assay (P05231 other isoform, or with tags, fused parts or gaps): as above

Binder	IC50 [nM]
B2	0.043
B3	0.026
B6	0.036
B8	0.043
